First the molecules themselves.
T1: PF3D7_0420300 D1 (Plasmodium falciparum, UniProt Q8I1N6 1956-2015)
T1 sequence: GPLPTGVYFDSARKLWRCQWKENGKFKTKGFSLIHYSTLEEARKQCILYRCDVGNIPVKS

B1: CACACA_negctrl_site979 (dsDNA)
DNA 1: ATGTAATTCTTTTACTTTTTTTTTTTTTTTTTTTTT
DNA 2: AAAAAAAAAAAAAAAAAAAAAGTAAAAGAATTACAT
B2: CACACA_negctrl_site1620 (dsDNA)
DNA 1: ATCTAAATAATATATATATATAATATTAATAATATA
DNA 2: TATATTATTAATATTATATATATATATTATTTAGAT
B3: CACACA_negctrl_site810 (dsDNA)
DNA 1: AGAAAGGAGGAAATAAAAGGACTTCTTTTTTTATAT
DNA 2: ATATAAAAAAAGAAGTCCTTTTATTTCCTCCTTTCT
B4: CACACA_negctrl_site674 (dsDNA)
DNA 1: TAAAATGATAAATGAATGTGATCATTTTATAAAATA
DNA 2: TATTTTATAAAATGATCACATTCATTTATCATTTTA
B5: CACACA_negctrl_site245 (dsDNA)
DNA 1: TTTTTATTTTATAATATATTCCTTTTCCTTTCTTTC
DNA 2: GAAAGAAAGGAAAAGGAATATATTATAAAATAAAAA
B6: CACACA_negctrl_site491 (dsDNA)
DNA 1: ATTTAATATCACAATATATTTTTTACCCTTATCAGC
DNA 2: GCTGATAAGGGTAAAAAATATATTGTGATATTAAAT
B7: CACACA_negctrl_site1645 (dsDNA)
DNA 1: TATTTTAGAGAAAAAAATAAATTACAAAATGTTAGG
DNA 2: CCTAACATTTTGTAATTTATTTTTTTCTCTAAAATA
B8: CACACA_negctrl_site825 (dsDNA)
DNA 1: TAAGTTCACAAAAAAAAAAAAAAATAAAGAAATAAA
DNA 2: TTTATTTCTTTATTTTTTTTTTTTTTTGTGAACTTA
B9: CACACA_negctrl_site173 (dsDNA)
DNA 1: TTTTATATATATATATATATATATATATATGTATAT
DNA 2: ATATACATATATATATATATATATATATATATAAAA
B10: CACACA_negctrl_site237 (dsDNA)
DNA 1: ATTCTATTTTTTATAAAACCATGTCATCAACATAGG
DNA 2: CCTATGTTGATGACATGGTTTTATAAAAAATAGAAT
B11: CACACA_negctrl_site753 (dsDNA)
DNA 1: ATTTTTTTTTAATGCAATATATTTTGAAAATTTTAT
DNA 2: ATAAAATTTTCAAAATATATTGCATTAAAAAAAAAT
B12: CACACA_negctrl_site515 (dsDNA)
DNA 1: GACTCATTAAGGATTATTCCTAATGATCAAAAGAAC
DNA 2: GTTCTTTTGATCATTAGGAATAATCCTTAATGAGTC
B13: CACACA_negctrl_site1423 (dsDNA)
DNA 1: TTTTTATAACTATATTATATAACTTTTGTACGAACT
DNA 2: AGTTCGTACAAAAGTTATATAATATAGTTATAAAAA
B14: CACACA_site6208 (dsDNA)
DNA 1: ATATAAATATGACACACACACAAAAAAAATAAAGAC
DNA 2: GTCTTTATTTTTTTTGTGTGTGTGTCATATTTATAT
B15: CACACA_site117 (dsDNA)
DNA 1: ATATATATAAAACACACACACAAAAAAAATAAAGAC
DNA 2: GTCTTTATTTTTTTTGTGTGTGTGTTTTATATATAT
B16: CACACA_negctrl_site730 (dsDNA)
DNA 1: AGATGATATATTATATATCCTTTTAATAAATGTAAT
DNA 2: ATTACATTTATTAAAAGGATATATAATATATCATCT
B17: CACACA_negctrl_site1084 (dsDNA)
DNA 1: TTTTATTGATTATTCATAAATATGCTATTCATCTAA
DNA 2: TTAGATGAATAGCATATTTATGAATAATCAATAAAA
B18: CACACA_negctrl_site329 (dsDNA)
DNA 1: TTTAATTTATATAATGATATTAAGTTGGTTATTAGG
DNA 2: CCTAATAACCAACTTAATATCATTATATAAATTAAA
B19: CACACA_negctrl_site786 (dsDNA)
DNA 1: AATAATAAATATATATATATATATATATATATATTT
DNA 2: AAATATATATATATATATATATATATATTTATTATT
B20: CACACA_negctrl_site583 (dsDNA)
DNA 1: AAAAAAAAAAAAAAAAAAAAAAAAATATATAATTTA
DNA 2: TAAATTATATATTTTTTTTTTTTTTTTTTTTTTTTT
B21: CACACA_negctrl_site116 (dsDNA)
DNA 1: ATTGGAAAATATGTTATATATATATATATATATATG
DNA 2: CATATATATATATATATATATAACATATTTTCCAAT
B22: CACACA_negctrl_site1558 (dsDNA)
DNA 1: TCTTAAATATATAAATTGAAAAATATAAAAGTAATA
DNA 2: TATTACTTTTATATTTTTCAATTTATATATTTAAGA
B23: CACACA_negctrl_site1083 (dsDNA)
DNA 1: ATGAAAAAAAAAAAAAAAAAAAAAAAAAAAAAAATA
DNA 2: TATTTTTTTTTTTTTTTTTTTTTTTTTTTTTTTCAT
B24: CACACA_negctrl_site1311 (dsDNA)
DNA 1: TTACATTTTTGAAATAGATACATACACGTGTATGTA
DNA 2: TACATACACGTGTATGTATCTATTTCAAAAATGTAA
B25: CACACA_negctrl_site1830 (dsDNA)
DNA 1: ATGGACATTTTATAAATCACAATGGATATTTTATAA
DNA 2: TTATAAAATATCCATTGTGATTTATAAAATGTCCAT
B26: CACACA_negctrl_site793 (dsDNA)
DNA 1: TCCTATAATTTTTTAATCAAAATATTTTATCCTTTG
DNA 2: CAAAGGATAAAATATTTTGATTAAAAAATTATAGGA
B27: CACACA_negctrl_site1603 (dsDNA)
DNA 1: TGATTTATCTATATTTTATAAGTTATTTATTTTTTT
DNA 2: AAAAAAATAAATAACTTATAAAATATAGATAAATCA
B28: CACACA_negctrl_site905 (dsDNA)
DNA 1: TATAATAATAATAATAATAATAATAATAATAATAAT
DNA 2: ATTATTATTATTATTATTATTATTATTATTATTATA
B29: CACACA_negctrl_site1491 (dsDNA)
DNA 1: GTAGCCTTTCTTTATAAAGGCAAACAAACAAAAAAT
DNA 2: ATTTTTTGTTTGTTTGCCTTTATAAAGAAAGGCTAC
B30: CACACA_site8094 (dsDNA)
DNA 1: AAAAAAATTTGGCATACACACACACCCCCACCCACA
DNA 2: TGTGGGTGGGGGTGTGTGTGTATGCCAAATTTTTTT
B31: CACACA_negctrl_site460 (dsDNA)
DNA 1: ATAATGTATTTATATATATATATATATTTTAATAAA
DNA 2: TTTATTAAAATATATATATATATATAAATACATTAT
B32: CACACA_negctrl_site1574 (dsDNA)
DNA 1: TTTTTTAAAAGAAAATAAAAAATAAGCATAATATGA
DNA 2: TCATATTATGCTTATTTTTTATTTTCTTTTAAAAAA
B33: CACACA_negctrl_site1765 (dsDNA)
DNA 1: TACTTTATATTATATATATATATATATATATATATA
DNA 2: TATATATATATATATATATATATATAATATAAAGTA
B34: CACACA_negctrl_site214 (dsDNA)
DNA 1: TTTTTATTTTTATACATATAATATATTATGATTAAA
DNA 2: TTTAATCATAATATATTATATGTATAAAAATAAAAA
B35: CACACA_negctrl_site1241 (dsDNA)
DNA 1: ATTTTTTTTTTTTTTTTTTTTTTGTTTATACAAAAT
DNA 2: ATTTTGTATAAACAAAAAAAAAAAAAAAAAAAAAAT
B36: CACACA_negctrl_site571 (dsDNA)
DNA 1: TTTGTAATAAACTACTTTTTTTTTTTTTTTTTTTTT
DNA 2: AAAAAAAAAAAAAAAAAAAAAGTAGTTTATTACAAA
B37: CACACA_negctrl_site1155 (dsDNA)
DNA 1: TAAATGTCTTCAATGAAGTGGAAATGCTGTTATATA
DNA 2: TATATAACAGCATTTCCACTTCATTGAAGACATTTA
B38: CACACA_negctrl_site620 (dsDNA)
DNA 1: TTTTTTTACTTAATAGTTCAACATATATCTCAATGT
DNA 2: ACATTGAGATATATGTTGAACTATTAAGTAAAAAAA
B39: CACACA_negctrl_site1391 (dsDNA)
DNA 1: ATTTTTTTTTTTTTTTTTTTTTTTTTTTGATTTGTG
DNA 2: CACAAATCAAAAAAAAAAAAAAAAAAAAAAAAAAAT
B40: CACACA_negctrl_site129 (dsDNA)
DNA 1: AAGCATTTTTTTTAAAGCCTGTTCATCATCCTTACC
DNA 2: GGTAAGGATGATGAACAGGCTTTAAAAAAAATGCTT
B41: CACACA_negctrl_site62 (dsDNA)
DNA 1: TATATGTTAATTTTTTTTTTTTTTTTTTTTTTTATA
DNA 2: TATAAAAAAAAAAAAAAAAAAAAAAATTAACATATA

In this series the target is T1, PF3D7_0420300 D1. As to the kind of experiment: gcPBM; about 25 ug protein; PBS, 1% milk, 0.2 mg/ml BSA, salmon testes DNA, 0.03% Triton X-100. The conditions noted are these: tags: N-terminal GST (pGEX-4T-1), kept; label: surface-attached array probe.
In the case of B1, the binding signal was 8.97 ln median PBM intensity, better of two orientations. As for B2, the binding signal was 8.99 ln median PBM intensity, better of two orientations.

With B3, the binding signal is 8.99 ln median PBM intensity, better of two orientations. On to B4, for which the binding signal is 9.01 ln median PBM intensity, better of two orientations. As for B5, the figure is 8.97 ln median PBM intensity, better of two orientations. Consider B6, for which the binding signal is 9.04 ln median PBM intensity, better of two orientations. The figure for B7 is 8.98 ln median PBM intensity, better of two orientations. Turning to B8, the binding signal was 8.98 ln median PBM intensity, better of two orientations.

Turning to B9, the binding signal is 9.03 ln median PBM intensity, better of two orientations.

B10: the binding signal is 8.99 ln median PBM intensity, better of two orientations. As to B11, the binding signal was 8.96 ln median PBM intensity, better of two orientations. As for B12, the figure is 9 ln median PBM intensity, better of two orientations; as for B13, 9.01 ln median PBM intensity, better of two orientations; as for B14, 10.6 ln median PBM intensity, better of two orientations. As to B15, the binding signal was 10.6 ln median PBM intensity, better of two orientations. As for B16, the figure is 9.03 ln median PBM intensity, better of two orientations. The figure for B17 is 9.01 ln median PBM intensity, better of two orientations; for B18 it is 9 ln median PBM intensity, better of two orientations. As for B19, the figure is 9 ln median PBM intensity, better of two orientations; as for B20, 9.05 ln median PBM intensity, better of two orientations. Consider B21, for which the binding signal is 9.05 ln median PBM intensity, better of two orientations.

As for B22, the binding signal was 9.06 ln median PBM intensity, better of two orientations.

Consider B23, for which the binding signal was 9.02 ln median PBM intensity, better of two orientations. As for B24, the binding signal is 9.01 ln median PBM intensity, better of two orientations. The figure for B25 is 8.96 ln median PBM intensity, better of two orientations.

In the case of B26, the binding signal is 9.02 ln median PBM intensity, better of two orientations. As for B27, the figure is 9.05 ln median PBM intensity, better of two orientations; as for B28, 9.03 ln median PBM intensity, better of two orientations; as for B29, 9.04 ln median PBM intensity, better of two orientations. The figure for B30 is 10.6 ln median PBM intensity, better of two orientations; for B31 it is 8.96 ln median PBM intensity, better of two orientations; for B32 it is 8.99 ln median PBM intensity, better of two orientations. As for B33, the figure is 9 ln median PBM intensity, better of two orientations; as for B34, 8.98 ln median PBM intensity, better of two orientations; as for B35, 9.04 ln median PBM intensity, better of two orientations. Take B36: the binding signal is 8.96 ln median PBM intensity, better of two orientations. As for B37, the figure is 8.99 ln median PBM intensity, better of two orientations; as for B38, 9.02 ln median PBM intensity, better of two orientations. With B39, the binding signal was 8.99 ln median PBM intensity, better of two orientations.

Take B40: the binding signal was 9.02 ln median PBM intensity, better of two orientations. The figure for B41 is 8.98 ln median PBM intensity, better of two orientations.

For the origin of these results see paper PMC11417369, “DNA sequence and chromatin differentiate sequence-specific transcription factor binding in the human malaria parasite Plasmodium falciparum”.
